Results from IntAct's records for PubMed 17259181.

B1: Zinc finger protein ZAT7 (Arabidopsis thaliana (Mouse-ear cress)), Q42453 (parent)
chain: MVARSEEIVIVEEDTTAKCLMLLSRVGECGGGCGGDERVFRCKTCLKEFSSFQALGGHRASHKKLINSDNPSLLGSLSNKKTKTSHPCPICGVKFPMGQALGGHMRRHRNEKVSGSLVTRSFLPETTTVTALKKFSSGKRVACLDLDLDSMESLVNWKLELGRTISWS
partner: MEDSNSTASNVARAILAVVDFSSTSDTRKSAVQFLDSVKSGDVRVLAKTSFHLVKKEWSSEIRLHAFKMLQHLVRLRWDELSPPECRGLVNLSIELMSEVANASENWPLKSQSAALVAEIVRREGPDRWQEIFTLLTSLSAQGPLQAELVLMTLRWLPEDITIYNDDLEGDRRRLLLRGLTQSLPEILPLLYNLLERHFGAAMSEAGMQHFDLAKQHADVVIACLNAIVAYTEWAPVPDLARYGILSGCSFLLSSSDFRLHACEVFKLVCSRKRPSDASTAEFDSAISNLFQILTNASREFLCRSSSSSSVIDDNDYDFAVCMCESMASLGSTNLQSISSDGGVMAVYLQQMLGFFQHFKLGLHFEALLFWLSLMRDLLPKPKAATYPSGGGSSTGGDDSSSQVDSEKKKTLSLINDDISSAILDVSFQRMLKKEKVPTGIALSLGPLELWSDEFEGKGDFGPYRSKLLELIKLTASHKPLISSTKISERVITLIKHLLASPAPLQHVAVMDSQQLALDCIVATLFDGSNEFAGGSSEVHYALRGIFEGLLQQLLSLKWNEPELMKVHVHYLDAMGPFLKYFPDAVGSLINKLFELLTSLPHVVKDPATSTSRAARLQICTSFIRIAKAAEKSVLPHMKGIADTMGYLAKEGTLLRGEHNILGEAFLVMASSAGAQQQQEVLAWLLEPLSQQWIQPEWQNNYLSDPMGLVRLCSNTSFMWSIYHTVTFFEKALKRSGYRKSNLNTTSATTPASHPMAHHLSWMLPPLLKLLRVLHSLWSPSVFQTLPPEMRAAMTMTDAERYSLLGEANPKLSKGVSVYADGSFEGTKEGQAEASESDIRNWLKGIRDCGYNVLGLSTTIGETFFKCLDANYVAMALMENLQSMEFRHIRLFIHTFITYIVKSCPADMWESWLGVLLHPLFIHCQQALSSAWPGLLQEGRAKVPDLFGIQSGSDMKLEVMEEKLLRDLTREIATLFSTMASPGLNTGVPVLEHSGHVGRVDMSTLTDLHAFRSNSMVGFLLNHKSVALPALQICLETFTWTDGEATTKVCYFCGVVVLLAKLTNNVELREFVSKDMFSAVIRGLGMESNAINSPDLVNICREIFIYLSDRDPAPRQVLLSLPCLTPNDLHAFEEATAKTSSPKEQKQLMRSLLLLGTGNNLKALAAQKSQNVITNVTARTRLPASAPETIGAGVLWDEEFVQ

Variants of: B1
Settings: with hasty_arath HST1, Q0WP44

Row | Variant | effect of a mutation on the interaction
1 | D145A;L146A;D147A | disrupting interaction
